These results are taken from FireProtDB (doi:10.1021/bi0525223).

The conditions of the series: Lithobates pipiens, pH 5.5, sodium acetate 100 mM, reversible: Yes, whole UniProt chain shown.

As usually defined, the Tm is the temperature at which the thermal transition is half complete.

B1: Protein P-30 wild type, P22069 (protein)
chain: QDWLTFQKKHITNTRDVDCDNIMSTNLFHCKDKNTFIYSRPEPVKAICKGIIASKNVLTTSEFYLSDCNVTSRPCKYKLKKSTNKFCVTCENQAPVHFVGVGSC
Regarding B1, the “denaturant midpoint (higher = more stable)” value (20 °C, GdnHCl, Fluorescence) came out at 4.4 M. In addition, the Tm (Thermal, DSC) was 88.5 °C.
